B1: SPSB4 (parent)
chain: LDMDEGTLSFIVDGQYLGVAFRGL

Variants of: B1
Assay: protein stability index of a GFP-peptide fusion (GPS, HEK-293T) (PSI 1-6); higher = more stable
Details: c terminus: a fixed tail appended
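Further: lentivirally expressed fusions sorted by FACS into six bins by GFP to DsRed ratio, PSI derived from sequencing read proportions per bin multiplied by bin number.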

Protein stability index of substitutions, site by site:
Y16: C 2.12 | L 2.52 | G 1.78 | R 1.69 | Q 1.26 | P 2.27 | I 3.04 | A 1.57 | W 1.9 | K 1.93 | D 1.55 | N 1.59 | S 1.84 | F 3.17 | T 2.34 | V 3.47 | E 2.56 | H 2.37 | M 2.81
L17: Y 2.55 | P 2.51 | I 3.23 | R 2.03 | F 3.76 | A 2.15 | G 1.47 | W 2.72 | K 1.87 | S 1.86 | M 1.67 | T 1.69 | D 2.29 | N 1.51 | E 1.79 | V 3.15 | H 1.86 | Q 2.09
F10: Q 2 | P 2.3 | K 2.37 | R 2.21 | W 2.33 | Y 1.89 | H 2.14 | S 2.13 | G 1.5 | A 1.84 | C 2.49 | V 2.38 | L 1.76 | M 1.73 | E 3.13 | D 2.79 | N 2.27 | T 2.44
I11: N 2.49 | C 3.29 | E 1.39 | P 2.25 | Q 2.31 | Y 2.58 | F 4.16 | H 3.77 | R 2.4 | L 3.07 | G 2.45 | W 1.56 | M 2.28 | T 2.74 | D 1.68 | V 1.47 | A 1.72 | K 1.94 | S 2.63
G18: F 2.44 | A 2.82 | E 2.06 | D 2.55 | C 2.03
S9: P 1.74 | T 2.45 | L 1.75 | Q 2.01 | Y 2.89 | G 2.99 | E 2.58 | D 1.87 | C 2.76 | H 2.95 | K 1.99 | N 2.9 | A 3.98 | V 1.81
V12: M 2.67 | Q 1.58 | D 1.99 | L 1.26 | W 3.35 | G 1.94 | T 2.35 | K 1.79 | N 1.75 | E 2.01 | R 1.84 | S 1.8 | F 1.92 | A 1.96 | H 1.62 | Y 2.36 | P 1.7 | C 3.24
L8: W 3.21 | P 1.88 | Q 2.12 | V 4.24 | S 1.67 | R 2.11 | T 1.87
D13: C 3.49 | N 2.39 | L 2.94 | S 2.61 | F 3.41 | Y 3.11 | H 2.94 | M 2.37 | G 2.8 | E 2.83 | P 1.82 | Q 2.77 | I 2.6 | V 2.9 | T 3.32 | K 2.61 | W 2.55
Q15: A 2.87 | L 2.2 | M 1.98 | S 2.35 | H 3.32 | N 3.31 | F 2.25 | T 3.63 | D 2.33 | Y 2.62 | V 2.19 | I 2.02 | E 1.39 | K 2.5
G14: T 3.42 | F 2.69 | Q 1.5 | A 2.58 | L 2.11 | V 1.95 | S 2.17 | E 1.91 | D 2.32 | Y 2.38 | R 2.65 | P 3.54 | H 3.15 | W 2.71 | M 2.88 | N 1.83 | K 2.44 | I 3.85

— the supplement of paper PMC10567573
